{
  "source": "the supplement of paper PMC6757056",
  "parents": {"B1": {"name": "library; a variant is named by its letters at N, in order (parent)", "chain": "GCUGUCACCGGUGCUUGGUACGUUAUAUUCAGCCGGUCUGAUGAGUCUNNNNNNAGACGAAACAGC"}},
  "key": {"(6R,S)-folinic acid [1]": {"variants_of": "B1", "assay": "normalized RNA/DNA level without ligand (relative to sTRSVctl = 100) (log10 (% of sTRSVctl)); HEK293T overexpressing SLC46A1; higher = less ribozyme self-cleavage, higher mRNA level", "conditions": "without (6R,S)-folinic acid; ligand present: no", "in_short": "(§1)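 Ribozyme switch library plasmids with mCherry reporters (eGFP in certain ligand experiments) went into HEK293T cells at 4 µg per 6-well well. Where ligand was used, it was applied 1 h before transfection, and total RNA was extracted with EDTA 72 h later for reverse transcription, amplification, barcoding and sequencing. RNA level is the RNA-to-DNA read ratio normalized to a spiked-in non-cleaving sequence or to the leading sequences, then scaled and log-transformed. Scaling was ×100 with log10, the leading set comprised 25 sequences, and the cutoff was ≥100 DNA reads.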"}, "(6R,S)-folinic acid [2]": {"variants_of": "B1", "assay": "normalized RNA/DNA level with ligand (relative to sTRSVctl = 100) (log10 (% of sTRSVctl)); HEK293T overexpressing SLC46A1; ligand concentration (+) RNA-Seq: 6 mM; higher = less ribozyme self-cleavage, higher mRNA level", "conditions": "with (6R,S)-folinic acid; ligand present: yes", "in_short": "as §1"}},
  "note": "± gives the standard deviation of the averaged measurements.",
  "data": [
    {"variant": "CUGGUA", "values": [
      {"measurement": "normalized RNA/DNA level without ligand (log10)", "setting": "(6R,S)-folinic acid [1]", "result": "1.95 ± 0.023"},
      {"measurement": "normalized RNA/DNA level with ligand (log10)", "setting": "(6R,S)-folinic acid [2]", "result": "1.98 ± 0.034"}
    ]},
    {"variant": "CUGGUG", "values": [
      {"measurement": "normalized RNA/DNA level without ligand (log10)", "setting": "(6R,S)-folinic acid [1]", "result": "1.982 ± 0.0025"},
      {"measurement": "normalized RNA/DNA level with ligand (log10)", "setting": "(6R,S)-folinic acid [2]", "result": "2.04 ± 0.037"}
    ]},
    {"variant": "CUGGUC", "values": [
      {"measurement": "normalized RNA/DNA level without ligand (log10)", "setting": "(6R,S)-folinic acid [1]", "result": "2.057 ± 0.0038"},
      {"measurement": "normalized RNA/DNA level with ligand (log10)", "setting": "(6R,S)-folinic acid [2]", "result": "2.04 ± 0.044"}
    ]},
    {"variant": "AUGCAG", "values": [
      {"measurement": "normalized RNA/DNA level without ligand (log10)", "setting": "(6R,S)-folinic acid [1]", "result": "1.92 ± 0.022"},
      {"measurement": "normalized RNA/DNA level with ligand (log10)", "setting": "(6R,S)-folinic acid [2]", "result": "2 ± 0.032"}
    ]},
    {"variant": "AUGCAU", "values": [
      {"measurement": "normalized RNA/DNA level without ligand (log10)", "setting": "(6R,S)-folinic acid [1]", "result": "1.934 ± 0.011"},
      {"measurement": "normalized RNA/DNA level with ligand (log10)", "setting": "(6R,S)-folinic acid [2]", "result": "2.006 ± 0.005"}
    ]},
    {"variant": "CUGUAA", "values": [
      {"measurement": "normalized RNA/DNA level without ligand (log10)", "setting": "(6R,S)-folinic acid [1]", "result": "1.958 ± 0.018"},
      {"measurement": "normalized RNA/DNA level with ligand (log10)", "setting": "(6R,S)-folinic acid [2]", "result": "2.02 ± 0.037"}
    ]},
    {"variant": "CUGUAC", "values": [
      {"measurement": "normalized RNA/DNA level without ligand (log10)", "setting": "(6R,S)-folinic acid [1]", "result": "1.992 ± 0.017"},
      {"measurement": "normalized RNA/DNA level with ligand (log10)", "setting": "(6R,S)-folinic acid [2]", "result": "2.013 ± 0.013"}
    ]},
    {"variant": "CUGUAG", "values": [
      {"measurement": "normalized RNA/DNA level without ligand (log10)", "setting": "(6R,S)-folinic acid [1]", "result": "1.925 ± 0.016"},
      {"measurement": "normalized RNA/DNA level with ligand (log10)", "setting": "(6R,S)-folinic acid [2]", "result": "2.02 ± 0.041"}
    ]},
    {"variant": "UUGCGC", "values": [
      {"measurement": "normalized RNA/DNA level without ligand (log10)", "setting": "(6R,S)-folinic acid [1]", "result": "2.062 ± 0.007"},
      {"measurement": "normalized RNA/DNA level with ligand (log10)", "setting": "(6R,S)-folinic acid [2]", "result": "2.079 ± 0.00078"}
    ]},
    {"variant": "UUGCGA", "values": [
      {"measurement": "normalized RNA/DNA level without ligand (log10)", "setting": "(6R,S)-folinic acid [1]", "result": "1.97 ± 0.022"},
      {"measurement": "normalized RNA/DNA level with ligand (log10)", "setting": "(6R,S)-folinic acid [2]", "result": "2.02 ± 0.055"}
    ]},
    {"variant": "UUGCGU", "values": [
      {"measurement": "normalized RNA/DNA level without ligand (log10)", "setting": "(6R,S)-folinic acid [1]", "result": "1.98 ± 0.031"},
      {"measurement": "normalized RNA/DNA level with ligand (log10)", "setting": "(6R,S)-folinic acid [2]", "result": "2.03 ± 0.032"}
    ]},
    {"variant": "UUGCGG", "values": [
      {"measurement": "normalized RNA/DNA level without ligand (log10)", "setting": "(6R,S)-folinic acid [1]", "result": "1.96 ± 0.02"},
      {"measurement": "normalized RNA/DNA level with ligand (log10)", "setting": "(6R,S)-folinic acid [2]", "result": "2 ± 0.031"}
    ]},
    {"variant": "GUGUCU", "values": [
      {"measurement": "normalized RNA/DNA level without ligand (log10)", "setting": "(6R,S)-folinic acid [1]", "result": "1.982 ± 0.0041"},
      {"measurement": "normalized RNA/DNA level with ligand (log10)", "setting": "(6R,S)-folinic acid [2]", "result": "1.98 ± 0.045"}
    ]},
    {"variant": "GUGUCG", "values": [
      {"measurement": "normalized RNA/DNA level without ligand (log10)", "setting": "(6R,S)-folinic acid [1]", "result": "2.006 ± 0.0093"},
      {"measurement": "normalized RNA/DNA level with ligand (log10)", "setting": "(6R,S)-folinic acid [2]", "result": "2.06 ± 0.037"}
    ]},
    {"variant": "GUGUCC", "values": [
      {"measurement": "normalized RNA/DNA level without ligand (log10)", "setting": "(6R,S)-folinic acid [1]", "result": "1.97 ± 0.011"},
      {"measurement": "normalized RNA/DNA level with ligand (log10)", "setting": "(6R,S)-folinic acid [2]", "result": "1.99 ± 0.034"}
    ]},
    {"variant": "AUCUAG", "values": [
      {"measurement": "normalized RNA/DNA level without ligand (log10)", "setting": "(6R,S)-folinic acid [1]", "result": "1.974 ± 0.013"},
      {"measurement": "normalized RNA/DNA level with ligand (log10)", "setting": "(6R,S)-folinic acid [2]", "result": "2.021 ± 0.0074"}
    ]},
    {"variant": "AUCUAU", "values": [
      {"measurement": "normalized RNA/DNA level without ligand (log10)", "setting": "(6R,S)-folinic acid [1]", "result": "2.0163 ± 0.0016"},
      {"measurement": "normalized RNA/DNA level with ligand (log10)", "setting": "(6R,S)-folinic acid [2]", "result": "2.03 ± 0.041"}
    ]},
    {"variant": "AUCUAC", "values": [
      {"measurement": "normalized RNA/DNA level without ligand (log10)", "setting": "(6R,S)-folinic acid [1]", "result": "2.013 ± 0.0088"},
      {"measurement": "normalized RNA/DNA level with ligand (log10)", "setting": "(6R,S)-folinic acid [2]", "result": "2.03 ± 0.039"}
    ]},
    {"variant": "AUCUAA", "values": [
      {"measurement": "normalized RNA/DNA level without ligand (log10)", "setting": "(6R,S)-folinic acid [1]", "result": "2.0002 ± 0.0016"},
      {"measurement": "normalized RNA/DNA level with ligand (log10)", "setting": "(6R,S)-folinic acid [2]", "result": "2.01 ± 0.042"}
    ]},
    {"variant": "CUGAGG", "values": [
      {"measurement": "normalized RNA/DNA level without ligand (log10)", "setting": "(6R,S)-folinic acid [1]", "result": "1.948 ± 0.005"},
      {"measurement": "normalized RNA/DNA level with ligand (log10)", "setting": "(6R,S)-folinic acid [2]", "result": "2.02 ± 0.029"}
    ]},
    {"variant": "CUGAGC", "values": [
      {"measurement": "normalized RNA/DNA level without ligand (log10)", "setting": "(6R,S)-folinic acid [1]", "result": "2.0258 ± 0.00095"},
      {"measurement": "normalized RNA/DNA level with ligand (log10)", "setting": "(6R,S)-folinic acid [2]", "result": "2.01 ± 0.019"}
    ]},
    {"variant": "CUGAGU", "values": [
      {"measurement": "normalized RNA/DNA level without ligand (log10)", "setting": "(6R,S)-folinic acid [1]", "result": "2.052 ± 0.016"},
      {"measurement": "normalized RNA/DNA level with ligand (log10)", "setting": "(6R,S)-folinic acid [2]", "result": "2.058 ± 0.015"}
    ]},
    {"variant": "CUGAAU", "values": [
      {"measurement": "normalized RNA/DNA level without ligand (log10)", "setting": "(6R,S)-folinic acid [1]", "result": "1.96 ± 0.003"},
      {"measurement": "normalized RNA/DNA level with ligand (log10)", "setting": "(6R,S)-folinic acid [2]", "result": "1.99 ± 0.045"}
    ]},
    {"variant": "CUGAAC", "values": [
      {"measurement": "normalized RNA/DNA level without ligand (log10)", "setting": "(6R,S)-folinic acid [1]", "result": "1.99 ± 0.035"},
      {"measurement": "normalized RNA/DNA level with ligand (log10)", "setting": "(6R,S)-folinic acid [2]", "result": "1.99 ± 0.024"}
    ]},
    {"variant": "CUGAAG", "values": [
      {"measurement": "normalized RNA/DNA level without ligand (log10)", "setting": "(6R,S)-folinic acid [1]", "result": "1.881 ± 0.0031"},
      {"measurement": "normalized RNA/DNA level with ligand (log10)", "setting": "(6R,S)-folinic acid [2]", "result": "1.995 ± 0.0079"}
    ]},
    {"variant": "CUGCUA", "values": [
      {"measurement": "normalized RNA/DNA level without ligand (log10)", "setting": "(6R,S)-folinic acid [1]", "result": "2.02 ± 0.021"},
      {"measurement": "normalized RNA/DNA level with ligand (log10)", "setting": "(6R,S)-folinic acid [2]", "result": "2.05 ± 0.031"}
    ]},
    {"variant": "CUGCUC", "values": [
      {"measurement": "normalized RNA/DNA level without ligand (log10)", "setting": "(6R,S)-folinic acid [1]", "result": "2.11 ± 0.053"},
      {"measurement": "normalized RNA/DNA level with ligand (log10)", "setting": "(6R,S)-folinic acid [2]", "result": "2.02 ± 0.034"}
    ]},
    {"variant": "CUGCUU", "values": [
      {"measurement": "normalized RNA/DNA level without ligand (log10)", "setting": "(6R,S)-folinic acid [1]", "result": "2.046 ± 0.013"},
      {"measurement": "normalized RNA/DNA level with ligand (log10)", "setting": "(6R,S)-folinic acid [2]", "result": "2.04 ± 0.03"}
    ]},
    {"variant": "CUGCUG", "values": [
      {"measurement": "normalized RNA/DNA level without ligand (log10)", "setting": "(6R,S)-folinic acid [1]", "result": "2.044 ± 0.0052"},
      {"measurement": "normalized RNA/DNA level with ligand (log10)", "setting": "(6R,S)-folinic acid [2]", "result": "2.03 ± 0.041"}
    ]}
  ]
}
